Measured values published in patent US8173131B2, “Compositions and methods for modulating RSV infection and immunity” (PerkinElmer Health Sciences, Inc., priority 2000, dated 2012).

B1: G glycoprotein: purified G glycoprotein isolated from RSV/A2-infected Vero cells (protein)
chain: MSKNKDQRTAKTLERTWDTLNHLLFISSCLYKLNLKSVAQITLSILAMIISTSLIIAAIIFIASANHKVTPTTAIIQDATSQIKNTTPTYLTQNPQLGISPSNPSEITSQITTILASTTPGVKSTLQSTTVKTKNTTTTQTQPSKPTTKQRQNKPPSKPNNDFHFEVFNFVPCSICSNNPTCWAICKRIPNKKPGKKTTTKPTKKPTLKTTKKDPKPQTTKSKEVPTTKPTEEPTINTTKTNIITTLLTSNTTGNPELTSQMETFHSTSSEGNPSPSQVSTTSEYPSQPSSPPNTPRQ

Assays:
[1] = target: T1, CX3CR1 (293-CX3CR1 cells) (Homo sapiens, UniProt P49238); assay: G glycoprotein and Fkn binding to 293-CX3CR1 cells by flow cytometry; details: for percent positive staining of CX3CR1-293 cells: representative experiment, FIG. 1
T1 construct: expressed in transfected cells
T1 sequence (P49238 1-355): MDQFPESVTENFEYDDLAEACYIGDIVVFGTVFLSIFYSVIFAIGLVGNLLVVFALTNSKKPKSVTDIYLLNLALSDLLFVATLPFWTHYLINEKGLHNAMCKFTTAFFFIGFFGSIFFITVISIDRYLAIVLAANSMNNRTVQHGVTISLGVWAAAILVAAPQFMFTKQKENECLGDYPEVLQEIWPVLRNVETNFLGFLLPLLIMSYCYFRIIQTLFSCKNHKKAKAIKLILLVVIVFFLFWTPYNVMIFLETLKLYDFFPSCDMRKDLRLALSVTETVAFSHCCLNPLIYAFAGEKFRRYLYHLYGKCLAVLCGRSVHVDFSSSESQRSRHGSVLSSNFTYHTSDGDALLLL
Method: Purified G glycoprotein was examined for binding to 293-CX3CR1 cells^33. A pcDNA 3.1 plasmid containing the CX3CR1 gene and a neomycin resistance gene was used to stably transfect human embryonic kidney (HEK) cells. Neomycin resistance was used for selection and maintenance of plasmid transfection of human embryonic kidney cells.
All binding studies were done on ice and either G glycoprotein or human Fkn (R&D Diagnostics, Minneapolis, […]) containing 1% bovine serum albumin (Sigma) and incubated with the 293-CX3CR1 cells or 293 control cells for 30 min at 4° C. […] For inhibition studies, 100 pM-1 μM human Fkn or G glycoprotein was preincubated with the cells for 30 min at 4° C. Without washing, 100 pM of either Fkn or G glycoprotein was added and incubated for 30 min at 4° C. The cells were washed, blocked with FcγRIII blocking antibody (HB197) for 30 min on ice, washed and stained as appropriate with either an anti-G glycoprotein monoclonal antibody cocktail (132-5B, 132-5G, 130-2G, 232-IF) or a biotinylated anti-G glycoprotein monoclonal antibody cocktail (130-2G, 131-2G) or anti-Fkn monoclonal antibody (51637.11; R&D Diagnostics). Concentrations of 1 μg of anti-G glycoprotein monoclonal antibody (131-2G)^34, rabbit anti-CX3CR1 sera^33, and anti-CX3CR1 monoclonal antibody containing 10 μg/ml heparin were used in all experiments. […] Staining was detected with absorbed FITC-goat anti-mouse (H & L chain) monoclonal antibody (PharMingen, San Diego, Calif.) or streptavidin-PE (PharMingen) using flow cytometry (FACScan, Becton-Dickinson, Mountain View, Calif.). A 76 amino acid ^125I-Fkn polypeptide comprising the […] (NEN, Boston, Mass.) was used in radioligand studies^33. As a control, the void volume following purified G glycoprotein passaged over an anti-G glycoprotein antibody (130-2G) affinity column was examined by flow cytometry for binding to either 293 or 293-CX3CR1 cells.
The receptor for Fkn, CX3CR1, was previously identified and characterized using anti-CX3CR1 rabbit antiserum and CX3CR1-transfected human embryonic kidney cells (293-CX3CR1 cells)^33.
The percent Fkn-maximum binding was calculated using the equation: [% G (or Fkn) 293-CX3CR1]-[% G (or Fkn) 293]/[% Fkn (10 nM) 293-CX3CR1]-[% Fkn (10 nM) 293], where G=G glycoprotein, Fkn=fractalkine, 293-CX3CR1=CX3CR1-transfected 293, 293=untransfected 293. The concentration of G glycoprotein was estimated using a molecular weight of 90 kD.

[2] = system: murine spleen leukocyte cell migration; assay: Murine leukocyte chemotaxis in modified Boyden chamber; assay type: cell-based, mouse
Method: The chemotactic index was determined from the fold increase of murine spleen leukocyte cell migration toward the chemoattractant (e.g., Fkn or G glycoprotein) over the leukocyte migration toward media alone control, using modified Boyden chambers. Fkn, G glycoprotein, recombinant polyhistidine-tagged G glycoprotein (GHIS), anti-CX3CR1 monoclonal antibody (2A9-1), normal rabbit serum, rabbit anti-CX3CR1 serum, anti-G glycoprotein monoclonal antibody (131-2G) or anti-F glycoprotein monoclonal antibody (131-2A) were added to the upper chamber to examine antagonism of cell migration toward the chemoattractant in the lower chamber.
Leukocyte chemotaxis toward Fkn, G glycoprotein or media was measured according to Boyden^46 using 24 well plates (Costar, Cambridge, Mass.) with 3 μm filter inserts (Nalge Nunc, Rochester, N.Y.) coated with an extracellular matrix consisting primarily of laminin, collagen IV and proteoglycan (ECM, Sigma, St. Louis, Mo.). For murine studies, 5×10^5 naïve spleen cells was placed in the upper chamber and 10 nM mouse Fkn or 10 nM G glycoprotein, anti-CX3CR1 antibody, anti-G or anti-F glycoprotein monoclonal antibody, normal rabbit sera, rabbit anti-CCR5 sera or media was placed in the upper or lower chamber as appropriate. For human studies, 10^6 density gradient purified (Lymphocyte Separation Media, ICN Biomedicals, Aurora, Ohio, per manufacture instructions) peripheral blood mononuclear cells (PBMC) from normal human adult donors was placed in the upper chamber in the presence or absence of 1 μM peptide RT33, and 10 nM human Fkn, 10 nM G glycoprotein or 1 μM peptide RT33 placed in the lower chambers. The modified Boyden chamber was incubated at 37° C. for 4-6 h, the inserts removed, washed in PBS (GIBCO BRL), fixed in 3% gluteraldehyde and stained in formalin-buffered 0.01% crystal violet. Chemotactic cells were visualized with a microscope. Chemotactic cells were analyzed for CX3CR1 expression by collecting cells from the upper or lower modified Boyden chambers, antibody staining (2A9-1) and flow cytometry as described. Leucocytes chemotactic toward G or Fkn expressed a higher percent of CX3CR1 in the lower (25-30%) versus upper chamber (7-11%).

[3] = 10 nM ligand, 293-CX3CR1 minus 293 binding relative to 10 nM Fkn
[4] = substance added to upper chamber as antagonist

Molecule | Fkn-Maximum Binding (%) ([1]; 10 pM ligand) | Fkn-Maximum Binding (%) ([1]; 100 pM ligand) | Fkn-Maximum Binding (%) ([1]; 1 nM ligand) | Fkn-Maximum Binding (%) [1, 3] [%] | percent positive staining of CX3CR1-293 cells ([1]; 10 nM ligand) [%] | concentration saturating 293-CX3CR1 binding ([1]; 30 min at 4° C.) [nM] | chemotactic index toward G glycoprotein [2, 4] | inhibition of leukocyte chemotaxis toward G glycoprotein ([2]; substance in upper chamber) | binding to 293-CX3CR1 cells ([1]; wheat germ lectin column fraction (G, F glycoprotein) or purified recombinant polyhistidine-tagged G glycoprotein) [%] | chemotactic index toward Fkn [2, 4] | inhibition of leukocyte chemotaxis toward Fkn ([2]; substance in upper chamber)
Fkn: CX3C chemokine fractalkine (R&D), ligand of CX3CR1 [reference compound] | 46 | 98 | 99 | 98 | 88 | 1 to 10 | 1.2 | approximately 75% |  |  | 
B1 | 40 | 80 | 87 | 88 | 84 |  |  |  | 70 | 3.2 | approximately 37%
